Measured values published in paper doi:10.1101/634907.
Blank lines part the entries; values can stand above or below the molecule they belong to.

Key:
[1] = biological target: recombinant human CLASP2 C-terminal fragment (CLASP2-1213-1515) (human); experiment: SEC + other: density gradient centrifugation
[2] = biological target: T1, CLASP2 (endogenous, HeLa cell extracts) (human (endogenous in HeLa)), O75122; experiment: SEC + other: density gradient centrifugation; details: remark: other sources report otherwise
T1 chain: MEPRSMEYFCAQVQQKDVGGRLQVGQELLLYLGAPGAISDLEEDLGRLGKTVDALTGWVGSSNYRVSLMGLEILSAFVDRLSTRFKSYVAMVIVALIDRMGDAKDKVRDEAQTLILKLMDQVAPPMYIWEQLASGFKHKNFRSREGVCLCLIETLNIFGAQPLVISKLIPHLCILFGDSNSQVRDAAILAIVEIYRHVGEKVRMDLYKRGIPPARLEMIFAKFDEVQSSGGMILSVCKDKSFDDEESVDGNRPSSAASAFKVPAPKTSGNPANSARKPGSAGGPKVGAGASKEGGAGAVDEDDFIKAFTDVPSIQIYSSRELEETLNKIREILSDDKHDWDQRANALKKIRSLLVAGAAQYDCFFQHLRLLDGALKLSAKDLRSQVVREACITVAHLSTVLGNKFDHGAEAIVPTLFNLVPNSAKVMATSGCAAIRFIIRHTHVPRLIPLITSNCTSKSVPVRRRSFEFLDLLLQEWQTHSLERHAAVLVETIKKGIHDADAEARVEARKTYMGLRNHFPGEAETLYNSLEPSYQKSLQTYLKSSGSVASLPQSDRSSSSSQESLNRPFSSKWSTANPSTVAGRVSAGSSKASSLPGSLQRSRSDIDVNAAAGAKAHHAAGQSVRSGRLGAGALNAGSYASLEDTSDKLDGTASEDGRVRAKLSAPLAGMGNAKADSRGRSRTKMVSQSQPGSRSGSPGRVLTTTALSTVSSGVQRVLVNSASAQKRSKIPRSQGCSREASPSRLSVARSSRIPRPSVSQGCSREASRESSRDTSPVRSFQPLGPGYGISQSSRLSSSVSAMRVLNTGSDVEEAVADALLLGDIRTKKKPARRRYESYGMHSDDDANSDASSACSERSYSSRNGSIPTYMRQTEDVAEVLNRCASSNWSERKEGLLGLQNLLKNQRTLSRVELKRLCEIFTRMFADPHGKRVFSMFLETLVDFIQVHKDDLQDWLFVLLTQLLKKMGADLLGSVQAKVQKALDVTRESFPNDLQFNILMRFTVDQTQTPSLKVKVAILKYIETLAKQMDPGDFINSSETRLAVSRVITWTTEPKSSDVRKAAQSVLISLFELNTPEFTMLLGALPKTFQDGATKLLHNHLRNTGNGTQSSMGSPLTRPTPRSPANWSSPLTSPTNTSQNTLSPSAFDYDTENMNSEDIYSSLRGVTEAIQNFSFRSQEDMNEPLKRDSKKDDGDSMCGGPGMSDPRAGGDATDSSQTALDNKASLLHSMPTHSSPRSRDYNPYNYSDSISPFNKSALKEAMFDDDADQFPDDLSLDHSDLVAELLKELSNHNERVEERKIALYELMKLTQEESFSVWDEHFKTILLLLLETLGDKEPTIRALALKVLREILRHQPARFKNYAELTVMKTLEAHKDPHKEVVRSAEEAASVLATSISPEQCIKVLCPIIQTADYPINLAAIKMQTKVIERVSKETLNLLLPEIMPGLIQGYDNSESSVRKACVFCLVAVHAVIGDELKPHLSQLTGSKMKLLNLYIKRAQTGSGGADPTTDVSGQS

stoichiometry N [1]: 2
Molecule: recombinant human CLASP2 C-terminal fragment (CLASP2-1213-1515) (domain or fragment)

stoichiometry N [2]: 2
B1: CLASP2 (endogenous, HeLa cell extracts), O75122-3 1-1515 (natural protein)
chain: T1 chain
